Laboratory results: patent US20240141071A1 (LAVA THERAPEUTICS N V, published 2024)
“And” between values parts separate entries of the source, which are not always exact repeats. Identical values can stand only once. Values belong to the binder of their own block, whether it stands above or below them.

How the values were obtained:
[1] = biological target: T1, recombinant purified CD123-Fc fusion protein (Bio-Techne/R&D Systems) (human, UniProt P26951 19-305); experiment: BLI, CD123-Fc on anti-human IgG Fc capture sensors; SD 4.3
T1 construct: Bought; also called Fc-fusion of the CD123 antigen; recombinant CD123
T1 sequence: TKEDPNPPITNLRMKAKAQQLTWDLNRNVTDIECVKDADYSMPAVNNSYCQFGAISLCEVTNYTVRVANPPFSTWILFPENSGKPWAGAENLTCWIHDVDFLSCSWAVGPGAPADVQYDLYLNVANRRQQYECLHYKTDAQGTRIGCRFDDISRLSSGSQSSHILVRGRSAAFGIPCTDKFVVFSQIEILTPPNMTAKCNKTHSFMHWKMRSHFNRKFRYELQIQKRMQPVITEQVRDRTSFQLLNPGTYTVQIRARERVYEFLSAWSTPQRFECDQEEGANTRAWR
Procedure: (§1) To determine the kinetics of binding of humanized 1D2-5C8var1 variants to CD123, recombinant purified CD123-Fc fusion protein (Bio-Techne/R&D Systems) was loaded to a density of 1 nm onto anti-human IgG Fc Capture sensors (using a concentration of 5 μg/ml) for an Octet Red96e (Sartorius) instrument. Different sensors were then dipped in different concentrations of humanized 1D2-5C8var1 variants, starting at 50 nM and two-fold dilutions thereof; dilutions were made in 10× kinetic buffer (10×KB) provided by the supplier. From the obtained sensorgrams, the kinetic association- and dissociation rate constants were determined by curve fitting. The association- and dissociation rate constants, when fitting was possible, were used to calculate the affinity of the humanized 1D2-5C8var1 variants for binding to CD123. […] For reference, the non-humanized (parental) 1D2 was included in these experiments.

[2] = biological target: T1, recombinant purified CD123-Fc fusion …; experiment: BLI, CD123-Fc on anti-human IgG Fc capture sensors; SD 0.4
Procedure: as §1

[3] = biological target: T1, recombinant purified CD123-Fc fusion …; experiment: BLI, CD123-Fc on anti-human IgG Fc capture sensors; SD 0.5
Procedure: as §1

[4] = biological target: T1, recombinant purified CD123-Fc fusion …; experiment: BLI, CD123-Fc on anti-human IgG Fc capture sensors, Octet Red96e
Procedure: as §1

[5] = biological target: T1, recombinant purified CD123-Fc fusion …; experiment: BLI, CD123-Fc on anti-human IgG Fc capture sensors; SD 1.5
Procedure: as §1

[6] = biological target: T2, human CD123 expressed on cells (human, UniProt P26951 19-378); experiment: cell-based or functional assay
[7] = biological target: T1, recombinant purified CD123-Fc fusion …; experiment: BLI, CD123-Fc on anti-human IgG Fc capture sensors; SD 0.7
Procedure: as §1

BSA = biological target: T3, BSA (bovine, UniProt P02769); experiment: ELISA, wells coated with 1% BSA (panel BSA), HRP anti-VHH detection
T3 construct: also called bovine serum albumin, negative control coating
T3 sequence (P02769 25-607 limits assumed): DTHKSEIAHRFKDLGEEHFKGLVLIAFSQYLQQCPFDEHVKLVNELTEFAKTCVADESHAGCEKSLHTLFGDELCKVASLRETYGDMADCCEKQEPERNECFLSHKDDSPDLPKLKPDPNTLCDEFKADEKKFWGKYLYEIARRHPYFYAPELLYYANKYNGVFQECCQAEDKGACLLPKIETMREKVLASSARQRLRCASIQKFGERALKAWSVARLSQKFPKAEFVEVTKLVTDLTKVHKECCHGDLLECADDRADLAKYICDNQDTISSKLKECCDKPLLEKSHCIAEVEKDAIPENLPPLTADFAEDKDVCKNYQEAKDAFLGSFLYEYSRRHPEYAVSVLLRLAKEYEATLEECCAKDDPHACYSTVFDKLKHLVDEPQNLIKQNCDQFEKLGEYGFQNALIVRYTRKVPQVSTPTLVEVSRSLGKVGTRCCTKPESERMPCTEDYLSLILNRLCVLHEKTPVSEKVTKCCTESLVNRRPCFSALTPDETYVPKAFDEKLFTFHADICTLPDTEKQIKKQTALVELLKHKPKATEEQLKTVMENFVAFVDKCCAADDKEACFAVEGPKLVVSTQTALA
Source text: FIG. 1: ELISA showing binding of all different bispecific VHHs to CD123, the Vγ9Vδ2 (GDT) TCR and BSA (as negative control). OD values are depicted; values are the mean of duplicate measurements; error bars indicate standard errors of the mean. A mono-valent anti-Vδ2 VHH was used as control for the TCR staining (“TCR control”) and a commercially available anti-CD123 antibody (“anti-CD123”) was used as control for the CD123 antigen coatings. “No AB” indicates a negative control without primary antibody.
Recombinant, purified CD123 antigen (extra-cellular domain; Sino Biological), or an Fc-fusion of the CD123 antigen (Bio-Techne/R&D Systems) was coated to the wells of an ELISA plate (Greiner) in PBS at a concentration of 2 μg/ml. As a negative control, wells were coated with 1% (w/v) BSA. An in-house designed, produced and purified recombinant form of the extra-cellular domains of the human Vγ9 and Vδ2 TCR chains fused to a human Fc was also coated as antigen at 2 μg/ml. After coating and blocking of the wells with 2% (w/v) BSA, bispecific VHH proteins were tested for binding at a saturating concentration of 50 nM and bound VHH was detected using an HRP-labeled anti-VHH antibody (Genscript) and staining using 3,3′,5,5′-tetramethylbenzidine (TMB)/H2O2.

[8] = biological target: T1, recombinant purified CD123-Fc fusion …; experiment: BLI, CD123-Fc on anti-human IgG Fc capture sensors, Octet Red96e, two measurements
Procedure: To determine the kinetics of binding of 1D2-5C8var1 to CD123, recombinant purified CD123-Fc fusion protein (Bio-Techne/R&D Systems) was loaded to a density of 1nm onto anti-human IgG Fc Capture sensors (using a concentration of 5 μg/ml) for an Octet Red96e (Sartorius) instrument. Different sensors were then dipped in different concentrations of 1D2-5C8var1; dilutions were made in 10× kinetic buffer (10×KB) provided by the supplier. From the obtained sensorgrams, the kinetic association- and dissociation rate constants were determined by curve fitting.
The latter is depicted as straight lines in the figure. This was used to determine the kinetic association- and dissociation rate constants and thereby the affinity of the anti-CD123 VHH 1D2.

[9] = biological target: T2, human CD123 expressed on cells; experiment: flow cytometry titration on 293F cells transiently expressing CD123, anti-VHH detection
Procedure: (§2) FIG. 3: Determination of the apparent affinity of 1D2-5C8var1 for binding to CD123 using flow cytometry. […] The geometric mean of the fluorescence intensity is plotted as a function of the antibody concentration used. The EC50 value was determined by curve fitting.
(§3) Expression constructs for human CD123 and for the common β chain of the receptor (CD131) were purchased from Invivogen. Plasmids were transformed to chemically competent DH5α bacteria and a single colony growing on selective medium was used to inoculate a 50 ml culture to amplify both constructs. […] Either plasmid alone, or a mix of the two plasmids was used for transfection. As negative control, untransfected cells were also used for flow cytometry. A day after transfection, cells were used to test the binding of the bispecific VHH using staining in FACS. Briefly, binding of a saturating concentration of 100 nM bispecific VHH to transfected cells was detected with an AF647-labeled anti-VHH (Genscript) antibody and staining was visualized using a FACS Celesta (Becton and Dickinson).
(§4) The former cells (expressing CD131) were used as negative control.

[10] = biological target: T4, human CD131 (common β chain of the IL3 receptor) expressed on 293F cells (human, UniProt P32927 17-897); experiment: flow cytometry on 293F cells transiently expressing CD131, AF647-labeled anti-VHH detection
T4 sequence: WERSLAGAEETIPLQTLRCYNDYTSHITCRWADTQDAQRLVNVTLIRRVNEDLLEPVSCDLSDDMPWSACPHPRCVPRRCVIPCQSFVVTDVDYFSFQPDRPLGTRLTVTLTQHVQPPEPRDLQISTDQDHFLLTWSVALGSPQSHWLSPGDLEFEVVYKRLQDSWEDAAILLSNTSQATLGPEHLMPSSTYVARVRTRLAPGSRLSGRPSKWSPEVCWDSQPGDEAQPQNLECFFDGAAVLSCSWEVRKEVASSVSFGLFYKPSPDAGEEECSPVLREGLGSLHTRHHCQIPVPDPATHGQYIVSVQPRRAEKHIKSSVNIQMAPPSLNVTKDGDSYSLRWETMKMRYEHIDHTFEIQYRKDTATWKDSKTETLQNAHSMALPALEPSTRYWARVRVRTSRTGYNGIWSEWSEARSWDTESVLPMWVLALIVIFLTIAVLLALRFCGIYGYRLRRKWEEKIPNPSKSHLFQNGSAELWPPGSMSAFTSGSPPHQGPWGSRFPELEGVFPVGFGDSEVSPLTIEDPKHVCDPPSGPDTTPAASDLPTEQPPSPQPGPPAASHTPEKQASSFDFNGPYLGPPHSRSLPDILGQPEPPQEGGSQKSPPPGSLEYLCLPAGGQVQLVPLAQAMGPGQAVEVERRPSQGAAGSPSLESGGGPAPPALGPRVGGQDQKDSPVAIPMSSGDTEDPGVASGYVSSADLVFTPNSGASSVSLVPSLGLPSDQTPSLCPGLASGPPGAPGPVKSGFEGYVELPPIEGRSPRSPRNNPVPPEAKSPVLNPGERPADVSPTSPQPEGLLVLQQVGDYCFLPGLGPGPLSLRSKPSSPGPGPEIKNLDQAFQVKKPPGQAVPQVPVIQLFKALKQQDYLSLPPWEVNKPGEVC
Procedure: as §3

[11] = biological target: human CD123 co-expressed with CD131 on 293F cells (human, UniProt P26951 19-378; P32927 17-897); experiment: flow cytometry titration on 293F cells transiently expressing CD123 and CD131, anti-VHH detection
Procedure: as §2, §3, §4

[12] = biological target: T2, human CD123 expressed on cells; experiment: flow cytometry titration on 293F cells transiently expressing CD123; apparent affinity, EC50 by curve fitting

B1: humanized 1D2-5C8var1 variant with 1D2 var3 (SEQ ID NO:27) (bispecific antibody)
chain: EVQLVESGGGLVQPGGSLRLSCAASGRTASSYVMSWFRQAPGKEREWVAVINWNGDSTYYADSVKGRFTISRDNSKNTVYLQMNSLRAEDTAVYYCAADTRREWYRDGYWGPPARYEYDYRGQGTLVTVSSGGGGSEVQLLESGGGSVQPGGSLRLSCAASGRPFSNYAMSWFRQAPGKEREFVSAISWSGGSTSYADSVKGRFTISRDNSKNTLYLQMNSLRAEDTAVYYCAAQFSGADYGFGRLGIRGYEYDYWGQGTQVTVSSAAAEPEA
notes: See note of m19
Kd [1]: 14.9 nM

B2: humanized 1D2-5C8var1 variant with 1D2 var1 (SEQ ID NO:25) (bispecific antibody)
chain: EVQLVESGGGLVQPGGSLRLSCAASGRTASSYVMGWFRQAPGKEREFVSVINWNGDSTYYADSVKGRFTISRDNSKNTLYLQMNSLRAEDTAVYYCAADTRREWYRDGYWGPPARYEYDYRGQGTQVTVSSGGGGSEVQLLESGGGSVQPGGSLRLSCAASGRPFSNYAMSWFRQAPGKEREFVSAISWSGGSTSYADSVKGRFTISRDNSKNTLYLQMNSLRAEDTAVYYCAAQFSGADYGFGRLGIRGYEYDYWGQGTQVTVSSAAAEPEA
Kd [2]: 7.2 nM

B4: humanized 1D2-5C8var1 variant with 1D2 var7 (SEQ ID NO:31) (bispecific antibody)
chain: EVQLVESGGGLVQPGGSLRLSCAASGRTASSYVMSWVRQAPGKGLEWVSVINWNGDSTYYADSVKGRFTISRDNSKNTLYLQMNSLRAEDTAVYYCAADTRREWYRDGYWGPPARYEYDYRGQGTLVTVSSGGGGSEVQLLESGGGSVQPGGSLRLSCAASGRPFSNYAMSWFRQAPGKEREFVSAISWSGGSTSYADSVKGRFTISRDNSKNTLYLQMNSLRAEDTAVYYCAAQFSGADYGFGRLGIRGYEYDYWGQGTQVTVSSAAAEPEA
notes: See note of m19
binding result [4]: no binding (tested: 50 nM (highest concentration tested))

B6: 1D2-5C8var1 bispecific VHH (bispecific antibody)
chain: EVQLVESGGGLVQAGGSLRLSCAASGRTASSYVMGWFRQAPGKEREFVAVINWNGDSTYYTDSVKGRFAISRDNAKNTVYLQMNSLKPEDTAVYYCAADTRREWYRDGYWGPPARYEYDYRGQGTQVTVSSGGGGSEVQLLESGGGSVQPGGSLRLSCAASGRPFSNYAMSWFRQAPGKEREFVSAISWSGGSTSYADSVKGRFTISRDNSKNTLYLQMNSLRAEDTAVYYCAAQFSGADYGFGRLGIRGYEYDYWGQGTQVTVSSAAAEPEA
notes: Orientation N-term-anti-CD123 VHH-linker-anti-Vδ2 VHH-C-tag; also called parental 1D2
EC50 for cytotoxicity, C1R-neo target cell lysis by Vγ9Vδ2 T cells, 24 h [6]: 0.001 to 0.002 nM
EC50 of T cell activation and lysis of primary AML blasts [6]: < 0.001 nM
EC50 of THP-1 target cell lysis by Vγ9Vδ2 T cells [6]: 1000 nM
EC50 of THP-1 target cell lysis by Vγ9Vδ2 T cells, 24 h [6]: 0.001 to 0.003 nM
Kd [7]: 3.1 nM
binding result (BSA): no binding (tested: 50 nM (single concentration))
Kd [8]: 3 to 5 nM and 5 nM
EC50 (read off the curve) [9]: ~3 nM
binding result [10]: no binding (tested: 100 nM (single concentration))
EC50 (read off the curve) [11]: ~3 nM
EC50 [12]: ~3 nM

Continued, values first:

Kd [3]: 2.6 nM
B3: humanized 1D2-5C8var1 variant with 1D2 var9 (SEQ ID NO:33) (bispecific antibody)
chain: EVQLVESGGGLVQAGGSLRLSCAASGRTASSYVMGWFRQAPGKEREWVAVINWNGDSTYYTDSVKGRFAISRDNAKNTVYLQMNSLRAEDTAVYYCAADTRREWYRDGYWGPPARYEYDYRGQGTQVTVSSGGGGSEVQLLESGGGSVQPGGSLRLSCAASGRPFSNYAMSWFRQAPGKEREFVSAISWSGGSTSYADSVKGRFTISRDNSKNTLYLQMNSLRAEDTAVYYCAAQFSGADYGFGRLGIRGYEYDYWGQGTQVTVSSAAAEPEA
notes: See note of m19

Kd [5]: 7.7 nM
B5: humanized 1D2-5C8var1 variant with 1D2 var5 (SEQ ID NO:29) (bispecific antibody)
chain: EVQLVESGGGLVQPGGSLRLSCAASGRTASSYVMSWFRQAPGKEREFVAVINWNGDSTYYADSVKGRFTISRDNSKNTVYLQMNSLRAEDTAVYYCAADTRREWYRDGYWGPPARYEYDYRGQGTLVTVSSGGGGSEVQLLESGGGSVQPGGSLRLSCAASGRPFSNYAMSWFRQAPGKEREFVSAISWSGGSTSYADSVKGRFTISRDNSKNTLYLQMNSLRAEDTAVYYCAAQFSGADYGFGRLGIRGYEYDYWGQGTQVTVSSAAAEPEA
notes: See note of m19
